The values below come from patent CN113045663A (SHENZHEN INNOVA NANOBODI CO LTD, dated 2021).

The target in this experiment is T1, 血清标本中的HE4抗原 (human, UniProt Q14508 31-124, limits assumed).
T1 construct: Serum HE4 detected in the sandwich assay; kept apart from the recombinant antigen; also called 血清中HE4; 质控血清HE4
T1 sequence (looked up): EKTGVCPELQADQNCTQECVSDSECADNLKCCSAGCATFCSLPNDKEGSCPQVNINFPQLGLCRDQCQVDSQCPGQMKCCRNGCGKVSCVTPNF
The experiment in a line: double-antibody sandwich chemiluminescent ELISA, capture antibody. (ELISA stands for enzyme-linked immunosorbent assay.)

B1: FC融合纳米抗体3C8 (Fc fusion)
chain: QLQESGGGLVQAGGSVRLSCAASGRTFRRYHMGWFRQTPGKEREFVAAISWSGGTTYYAESVKGRFTISRDNAKNTIYLQMNSLKPEDTAVYYCAPTYGNYWHPSGYWGQGTQVTVSS
notes: Capture antibody of the double-antibody sandwich assay; also called 3C8 (捕获一抗); 捕获抗体3C8; not shown: Fc part and any linker
Consider B1, for which the binding result is on record as “binds”.
